Assay results published in US20230406885A1, “CYCLIC PEPTIDES FOR TRAPPING INTERLEUKIN-1 BETA” (MERCK SHARP & DOHME LLC, priority 2022, published 2023).
*1 amine or outer side, *2 acyl side, *3 side chain or, on linkers, in order; H or OH if unused. [ ]: non-standard residue; d: D form. 3AzaPhe4AcPip = (S)-3-(6-(4-acetylpiperazin-1-yl)pyridin-3-yl)-2-aminopropanoic acid, CC(=O)N1CCN(c2ccc(C[C@H](N[*:1])C(=O)[*:2])cn2)CC1; Pro(trans-4-NH2) = O=C([C@@H]1C[C@@H](N[*:3])CN1[*:1])[*:2]; Trp(βS-Me,4-F) = C[C@@H](c1c[nH]c2cccc(F)c12)[C@H](N)C(=O)O; Bip(4'-COOH) = N[C@@H](Cc1ccc(-c2ccc(C(=O)O)cc2)cc1)C(=O)O; hQ = L-homoglutamine, NC(=O)CCC[C@H](N[*:1])C(=O)[*:2]; Phe(4-COOH) = N[C@@H](Cc1ccc(C(=O)O)cc1)C(=O)O; h3Pal(5-CN) = N#Cc1cncc(CC[C@H](N)C(=O)O)c1; Ala(4-THP) = N[C@@H](CC1CCOCC1)C(=O)O; hTyr = N[C@@H](CCc1ccc(O)cc1)C(=O)O; h4Pal = N[C@@H](CCc1ccncc1)C(=O)O; hLys = NCCCCC[C@H](N)C(=O)O; dDab = NCC[C@@H](N)C(=O)O; dNMeA = CN[C@H](C)C(=O)O

B1: SEQ ID NO: 6 (peptide)
peptide: cyclo([3AzaPhe4AcPip]W[Phe(4-COOH)]G[Pro(trans-4-NH2)][Trp(βS-Me,4-F)]D[dNMeA]G[Bip(4'-COOH)]KL[dA][hTyr])
SMILES: CC(=O)N1CCN(c2ccc(C[C@@H]3NC(=O)[C@H](CCc4ccc(O)cc4)NC(=O)[C@@H](C)NC(=O)[C@H](CC(C)C)NC(=O)[C@H](CCCCN)NC(=O)[C@H](Cc4ccc(-c5ccc(C(=O)O)cc5)cc4)NC(=O)CNC(=O)[C@@H](C)N(C)C(=O)[C@H](CC(=O)O)NC(=O)[C@H]([C@@H](C)c4c[nH]c5cccc(F)c45)NC(=O)[C@@H]4C[C@@H](N)CN4C(=O)CNC(=O)[C@H](Cc4ccc(C(=O)O)cc4)NC(=O)[C@H](Cc4c[nH]c5ccccc45)NC3=O)cn2)CC1
B2: SEQ ID NO: 60 (peptide)
peptide: cyclo([Bip(4'-COOH)]W[Phe(4-COOH)]G[Pro(trans-4-NH2)][Trp(βS-Me,4-F)]D[dNMeA]G[Bip(4'-COOH)]FL[dA][hTyr])
SMILES: CC(C)C[C@@H]1NC(=O)[C@H](Cc2ccccc2)NC(=O)[C@H](Cc2ccc(-c3ccc(C(=O)O)cc3)cc2)NC(=O)CNC(=O)[C@@H](C)N(C)C(=O)[C@H](CC(=O)O)NC(=O)[C@H]([C@@H](C)c2c[nH]c3cccc(F)c23)NC(=O)[C@@H]2C[C@@H](N)CN2C(=O)CNC(=O)[C@H](Cc2ccc(C(=O)O)cc2)NC(=O)[C@H](Cc2c[nH]c3ccccc23)NC(=O)[C@H](Cc2ccc(-c3ccc(C(=O)O)cc3)cc2)NC(=O)[C@H](CCc2ccc(O)cc2)NC(=O)[C@@H](C)NC1=O
B3: SEQ ID NO: 69 (peptide)
peptide: cyclo([Bip(4'-COOH)]W[Phe(4-COOH)]G[Pro(trans-4-NH2)][Trp(βS-Me,4-F)]D[dNMeA]G[Bip(4'-COOH)]KL[dS][hTyr])
SMILES: CC(C)C[C@@H]1NC(=O)[C@H](CCCCN)NC(=O)[C@H](Cc2ccc(-c3ccc(C(=O)O)cc3)cc2)NC(=O)CNC(=O)[C@@H](C)N(C)C(=O)[C@H](CC(=O)O)NC(=O)[C@H]([C@@H](C)c2c[nH]c3cccc(F)c23)NC(=O)[C@@H]2C[C@@H](N)CN2C(=O)CNC(=O)[C@H](Cc2ccc(C(=O)O)cc2)NC(=O)[C@H](Cc2c[nH]c3ccccc23)NC(=O)[C@H](Cc2ccc(-c3ccc(C(=O)O)cc3)cc2)NC(=O)[C@H](CCc2ccc(O)cc2)NC(=O)[C@@H](CO)NC1=O
B4: SEQ ID NO: 68 (peptide)
peptide: cyclo([Bip(4'-COOH)]W[Phe(4-COOH)]G[Pro(trans-4-NH2)][Trp(βS-Me,4-F)]D[dNMeA]G[Bip(4'-COOH)]KL[dDab][hTyr])
SMILES: CC(C)C[C@@H]1NC(=O)[C@H](CCCCN)NC(=O)[C@H](Cc2ccc(-c3ccc(C(=O)O)cc3)cc2)NC(=O)CNC(=O)[C@@H](C)N(C)C(=O)[C@H](CC(=O)O)NC(=O)[C@H]([C@@H](C)c2c[nH]c3cccc(F)c23)NC(=O)[C@@H]2C[C@@H](N)CN2C(=O)CNC(=O)[C@H](Cc2ccc(C(=O)O)cc2)NC(=O)[C@H](Cc2c[nH]c3ccccc23)NC(=O)[C@H](Cc2ccc(-c3ccc(C(=O)O)cc3)cc2)NC(=O)[C@H](CCc2ccc(O)cc2)NC(=O)[C@@H](CCN)NC1=O
B5: SEQ ID NO: 65 (peptide)
peptide: cyclo([Bip(4'-COOH)]W[Phe(4-COOH)]G[Pro(trans-4-NH2)][Trp(βS-Me,4-F)]D[dNMeA]G[Bip(4'-COOH)]K[Ala(4-THP)][dA][hTyr])
SMILES: C[C@@H]1C(=O)NCC(=O)N[C@@H](Cc2ccc(-c3ccc(C(=O)O)cc3)cc2)C(=O)N[C@@H](CCCCN)C(=O)N[C@@H](CC2CCOCC2)C(=O)N[C@H](C)C(=O)N[C@@H](CCc2ccc(O)cc2)C(=O)N[C@@H](Cc2ccc(-c3ccc(C(=O)O)cc3)cc2)C(=O)N[C@@H](Cc2c[nH]c3ccccc23)C(=O)N[C@@H](Cc2ccc(C(=O)O)cc2)C(=O)NCC(=O)N2C[C@H](N)C[C@H]2C(=O)N[C@@H]([C@@H](C)c2c[nH]c3cccc(F)c23)C(=O)N[C@@H](CC(=O)O)C(=O)N1C
B6: SEQ ID NO: 62 (peptide)
peptide: cyclo([Bip(4'-COOH)]W[Phe(4-COOH)]G[Pro(trans-4-NH2)][Trp(βS-Me,4-F)]D[dNMeA]G[Bip(4'-COOH)][hLys]L[dA][hTyr])
SMILES: CC(C)C[C@@H]1NC(=O)[C@H](CCCCCN)NC(=O)[C@H](Cc2ccc(-c3ccc(C(=O)O)cc3)cc2)NC(=O)CNC(=O)[C@@H](C)N(C)C(=O)[C@H](CC(=O)O)NC(=O)[C@H]([C@@H](C)c2c[nH]c3cccc(F)c23)NC(=O)[C@@H]2C[C@@H](N)CN2C(=O)CNC(=O)[C@H](Cc2ccc(C(=O)O)cc2)NC(=O)[C@H](Cc2c[nH]c3ccccc23)NC(=O)[C@H](Cc2ccc(-c3ccc(C(=O)O)cc3)cc2)NC(=O)[C@H](CCc2ccc(O)cc2)NC(=O)[C@@H](C)NC1=O
B7: SEQ ID NO: 67 (peptide)
peptide: cyclo([Bip(4'-COOH)]W[Phe(4-COOH)]G[Pro(trans-4-NH2)][Trp(βS-Me,4-F)]D[dNMeA]G[Bip(4'-COOH)]KL[dA][hTyr])
SMILES: CC(C)C[C@@H]1NC(=O)[C@H](CCCCN)NC(=O)[C@H](Cc2ccc(-c3ccc(C(=O)O)cc3)cc2)NC(=O)CNC(=O)[C@@H](C)N(C)C(=O)[C@H](CC(=O)O)NC(=O)[C@H]([C@@H](C)c2c[nH]c3cccc(F)c23)NC(=O)[C@@H]2C[C@@H](N)CN2C(=O)CNC(=O)[C@H](Cc2ccc(C(=O)O)cc2)NC(=O)[C@H](Cc2c[nH]c3ccccc23)NC(=O)[C@H](Cc2ccc(-c3ccc(C(=O)O)cc3)cc2)NC(=O)[C@H](CCc2ccc(O)cc2)NC(=O)[C@@H](C)NC1=O
B8: SEQ ID NO: 63 (peptide)
peptide: cyclo([Bip(4'-COOH)]W[Phe(4-COOH)]G[Pro(trans-4-NH2)][Trp(βS-Me,4-F)]D[dNMeA]G[Bip(4'-COOH)][hQ]L[dA][hTyr])
SMILES: CC(C)C[C@@H]1NC(=O)[C@H](CCCC(N)=O)NC(=O)[C@H](Cc2ccc(-c3ccc(C(=O)O)cc3)cc2)NC(=O)CNC(=O)[C@@H](C)N(C)C(=O)[C@H](CC(=O)O)NC(=O)[C@H]([C@@H](C)c2c[nH]c3cccc(F)c23)NC(=O)[C@@H]2C[C@@H](N)CN2C(=O)CNC(=O)[C@H](Cc2ccc(C(=O)O)cc2)NC(=O)[C@H](Cc2c[nH]c3ccccc23)NC(=O)[C@H](Cc2ccc(-c3ccc(C(=O)O)cc3)cc2)NC(=O)[C@H](CCc2ccc(O)cc2)NC(=O)[C@@H](C)NC1=O
B9: SEQ ID NO: 7 (peptide)
peptide: cyclo([3AzaPhe4AcPip]W[Phe(4-COOH)]G[Pro(trans-4-NH2)][Trp(βS-Me,4-F)]D[dNMeA]G[Bip(4'-COOH)]KL[dDab][hTyr])
SMILES: CC(=O)N1CCN(c2ccc(C[C@@H]3NC(=O)[C@H](CCc4ccc(O)cc4)NC(=O)[C@@H](CCN)NC(=O)[C@H](CC(C)C)NC(=O)[C@H](CCCCN)NC(=O)[C@H](Cc4ccc(-c5ccc(C(=O)O)cc5)cc4)NC(=O)CNC(=O)[C@@H](C)N(C)C(=O)[C@H](CC(=O)O)NC(=O)[C@H]([C@@H](C)c4c[nH]c5cccc(F)c45)NC(=O)[C@@H]4C[C@@H](N)CN4C(=O)CNC(=O)[C@H](Cc4ccc(C(=O)O)cc4)NC(=O)[C@H](Cc4c[nH]c5ccccc45)NC3=O)cn2)CC1
B10: SEQ ID NO: 66 (peptide)
peptide: cyclo([Bip(4'-COOH)]W[Phe(4-COOH)]G[Pro(trans-4-NH2)][Trp(βS-Me,4-F)]D[dNMeA]G[Bip(4'-COOH)]KL[dA][h3Pal(5-CN)])
SMILES: CC(C)C[C@@H]1NC(=O)[C@H](CCCCN)NC(=O)[C@H](Cc2ccc(-c3ccc(C(=O)O)cc3)cc2)NC(=O)CNC(=O)[C@@H](C)N(C)C(=O)[C@H](CC(=O)O)NC(=O)[C@H]([C@@H](C)c2c[nH]c3cccc(F)c23)NC(=O)[C@@H]2C[C@@H](N)CN2C(=O)CNC(=O)[C@H](Cc2ccc(C(=O)O)cc2)NC(=O)[C@H](Cc2c[nH]c3ccccc23)NC(=O)[C@H](Cc2ccc(-c3ccc(C(=O)O)cc3)cc2)NC(=O)[C@H](CCc2cncc(C#N)c2)NC(=O)[C@@H](C)NC1=O
B11: SEQ ID NO: 64 (peptide)
peptide: cyclo([Bip(4'-COOH)]W[Phe(4-COOH)]G[Pro(trans-4-NH2)][Trp(βS-Me,4-F)]D[dNMeA]G[Bip(4'-COOH)]K[Ala(4-THP)][dA][h3Pal(5-CN)])
SMILES: C[C@@H]1C(=O)NCC(=O)N[C@@H](Cc2ccc(-c3ccc(C(=O)O)cc3)cc2)C(=O)N[C@@H](CCCCN)C(=O)N[C@@H](CC2CCOCC2)C(=O)N[C@H](C)C(=O)N[C@@H](CCc2cncc(C#N)c2)C(=O)N[C@@H](Cc2ccc(-c3ccc(C(=O)O)cc3)cc2)C(=O)N[C@@H](Cc2c[nH]c3ccccc23)C(=O)N[C@@H](Cc2ccc(C(=O)O)cc2)C(=O)NCC(=O)N2C[C@H](N)C[C@H]2C(=O)N[C@@H]([C@@H](C)c2c[nH]c3cccc(F)c23)C(=O)N[C@@H](CC(=O)O)C(=O)N1C
B12: SEQ ID NO: 61 (peptide)
peptide: cyclo([Bip(4'-COOH)]W[Phe(4-COOH)]G[Pro(trans-4-NH2)][Trp(βS-Me,4-F)]D[dNMeA]G[Bip(4'-COOH)][h4Pal]L[dA][hTyr])
SMILES: CC(C)C[C@@H]1NC(=O)[C@H](CCc2ccncc2)NC(=O)[C@H](Cc2ccc(-c3ccc(C(=O)O)cc3)cc2)NC(=O)CNC(=O)[C@@H](C)N(C)C(=O)[C@H](CC(=O)O)NC(=O)[C@H]([C@@H](C)c2c[nH]c3cccc(F)c23)NC(=O)[C@@H]2C[C@@H](N)CN2C(=O)CNC(=O)[C@H](Cc2ccc(C(=O)O)cc2)NC(=O)[C@H](Cc2c[nH]c3ccccc23)NC(=O)[C@H](Cc2ccc(-c3ccc(C(=O)O)cc3)cc2)NC(=O)[C@H](CCc2ccc(O)cc2)NC(=O)[C@@H](C)NC1=O

Each binder was assayed against Recombinant human IL-1β (BioLegend 579404) (human, UniProt P01584 117-269) (assay: cell-based or functional assay).
In the case of B1, the “MRC5 IC50” value is reported as 66.6 pM.
With B2 the “MRC5 IC50” value was 68.9 pM.
With B3 the “MRC5 IC50” value was 334 pM.
For B4, the “MRC5 IC50” value was 296 pM.
With B5 the “MRC5 IC50” value was 15.8 pM.
With B6 the “MRC5 IC50” value was 283 pM.
B7 was tested, and the “MRC5 IC50” value was 46 pM.
With B8 the “MRC5 IC50” value was 63 pM.
In the case of B9, the “MRC5 IC50” value is reported as 135 pM.
B10 was tested, and the “MRC5 IC50” value was 29.9 pM.
For B11, the “MRC5 IC50” value was 18.2 pM.
In the case of B12, the “MRC5 IC50” value is reported as 312 pM.
